Ends that are not written are not given here.

For assay [1], the target named is T1, ErbB-4 expressed on transfected cells (CHO cells; 32D derivatives D4 and D24) (UniProt Q15303 26-1308, limits assumed).
T1 construct: whole, on cells; also called surface-expressed ErbB-4
As to the kind of experiment: displacement of radiolabeled NRG-1β (5 ng/ml) from CHO cells expressing ErbB-4 by unlabeled ligand; reference unlabeled NRG-1. An excerpt: (§1) Each data point represents the mean and range (bars) of two determinations.
(§2) To quantify the interaction, a ligand displacement analysis on ErbB-4-expressing CHO cells was undertaken.

Assay [2] deals with T2, ErbB-3 expressed on transfected cells (32D derivative D3; CHO cells co-transfected with ErbB-4) (UniProt P21860 20-1342, limits assumed).
T2 construct: whole, on cells
As to the kind of experiment: in vitro studies with engineered cell lines expressing all four ErbB proteins (FIGS. 3 to 5). As to the method:
(§3) The indicated derivative lines of 32D cells were tested for cell proliferation using the [3-(4,5-dimethylthiazol-2-yl)-2,5-diphenyl]tetrazolium bromide (MTT) assay. […] The MTT assay was performed 24 hours later.
(§4) The indicated derivatives of 32D cells were incubated for various time intervals in the absence of IL-3. […] For control, cells were incubated with medium conditioned by IL-3-producing cells (open triangles), or with no factor (open circles). The extent of cell proliferation was determined daily by using the colorimetric MTT assay. The data presented are the mean±S.D. of 4 determinations.

The target in assay [3] is T3, ErbB-1 expressed on transfected cells (32D derivative D1; CHO cells co-transfected with ErbB-4) (UniProt P00533 25-1210, limits assumed).
T3 construct: whole, on cells; also called Epidermal Growth Factor Receptor
Described as above. On the procedure:
as §3, §4

Assay [4] deals with T4, ErbB-2 expressed on transfected cells (32D derivative D2; CHO cells co-transfected with ErbB-4) (UniProt P04626 23-1255, limits assumed).
T4 construct: whole, on cells
The description is as above. On the procedure: as §3, §4

For assay [5], the target named is T1, ErbB-4 expressed on transfected cells …. As to the kind of experiment: displacement of radiolabeled NRG-1β (5 ng/ml) from CHO cells expressing ErbB-4 by unlabeled ligand, 2 hours at 4 C.
Description: as §1, §2

T1 sequence (Q15303 26-1308 limits assumed): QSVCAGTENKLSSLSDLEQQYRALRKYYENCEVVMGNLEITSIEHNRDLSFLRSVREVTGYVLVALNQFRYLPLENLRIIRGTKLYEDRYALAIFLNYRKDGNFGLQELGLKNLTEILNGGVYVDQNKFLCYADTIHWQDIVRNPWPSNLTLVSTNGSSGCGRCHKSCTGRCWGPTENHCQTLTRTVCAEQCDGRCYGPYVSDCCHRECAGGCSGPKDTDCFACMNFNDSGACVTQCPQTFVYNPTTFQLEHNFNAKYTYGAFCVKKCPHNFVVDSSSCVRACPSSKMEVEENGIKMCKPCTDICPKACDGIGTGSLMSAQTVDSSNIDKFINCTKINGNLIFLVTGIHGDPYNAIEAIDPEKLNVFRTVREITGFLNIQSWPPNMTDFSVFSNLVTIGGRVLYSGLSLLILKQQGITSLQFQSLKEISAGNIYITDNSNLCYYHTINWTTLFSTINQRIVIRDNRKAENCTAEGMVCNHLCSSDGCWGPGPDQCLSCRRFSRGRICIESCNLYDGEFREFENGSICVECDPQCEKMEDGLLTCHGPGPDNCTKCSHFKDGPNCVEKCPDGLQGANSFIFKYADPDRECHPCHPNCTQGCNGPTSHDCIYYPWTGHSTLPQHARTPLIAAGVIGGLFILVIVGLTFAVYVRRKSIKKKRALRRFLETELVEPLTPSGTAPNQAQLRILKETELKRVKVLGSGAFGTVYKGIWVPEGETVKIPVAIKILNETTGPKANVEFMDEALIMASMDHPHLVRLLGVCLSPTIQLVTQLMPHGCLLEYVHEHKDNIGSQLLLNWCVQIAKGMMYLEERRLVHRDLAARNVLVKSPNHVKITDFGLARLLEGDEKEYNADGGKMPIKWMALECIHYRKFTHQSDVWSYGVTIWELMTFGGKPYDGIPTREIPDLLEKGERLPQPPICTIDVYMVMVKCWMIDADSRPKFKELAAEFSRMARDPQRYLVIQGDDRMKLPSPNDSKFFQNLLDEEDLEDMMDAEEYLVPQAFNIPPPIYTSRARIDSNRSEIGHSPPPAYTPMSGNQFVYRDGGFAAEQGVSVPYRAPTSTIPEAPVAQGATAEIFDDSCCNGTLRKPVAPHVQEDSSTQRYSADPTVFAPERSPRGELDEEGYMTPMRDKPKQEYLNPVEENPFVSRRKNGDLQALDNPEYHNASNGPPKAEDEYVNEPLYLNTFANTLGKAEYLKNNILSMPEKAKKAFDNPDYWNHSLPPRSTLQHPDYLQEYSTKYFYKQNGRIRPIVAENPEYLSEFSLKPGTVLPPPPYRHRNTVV
T2 sequence (P21860 20-1342 limits assumed): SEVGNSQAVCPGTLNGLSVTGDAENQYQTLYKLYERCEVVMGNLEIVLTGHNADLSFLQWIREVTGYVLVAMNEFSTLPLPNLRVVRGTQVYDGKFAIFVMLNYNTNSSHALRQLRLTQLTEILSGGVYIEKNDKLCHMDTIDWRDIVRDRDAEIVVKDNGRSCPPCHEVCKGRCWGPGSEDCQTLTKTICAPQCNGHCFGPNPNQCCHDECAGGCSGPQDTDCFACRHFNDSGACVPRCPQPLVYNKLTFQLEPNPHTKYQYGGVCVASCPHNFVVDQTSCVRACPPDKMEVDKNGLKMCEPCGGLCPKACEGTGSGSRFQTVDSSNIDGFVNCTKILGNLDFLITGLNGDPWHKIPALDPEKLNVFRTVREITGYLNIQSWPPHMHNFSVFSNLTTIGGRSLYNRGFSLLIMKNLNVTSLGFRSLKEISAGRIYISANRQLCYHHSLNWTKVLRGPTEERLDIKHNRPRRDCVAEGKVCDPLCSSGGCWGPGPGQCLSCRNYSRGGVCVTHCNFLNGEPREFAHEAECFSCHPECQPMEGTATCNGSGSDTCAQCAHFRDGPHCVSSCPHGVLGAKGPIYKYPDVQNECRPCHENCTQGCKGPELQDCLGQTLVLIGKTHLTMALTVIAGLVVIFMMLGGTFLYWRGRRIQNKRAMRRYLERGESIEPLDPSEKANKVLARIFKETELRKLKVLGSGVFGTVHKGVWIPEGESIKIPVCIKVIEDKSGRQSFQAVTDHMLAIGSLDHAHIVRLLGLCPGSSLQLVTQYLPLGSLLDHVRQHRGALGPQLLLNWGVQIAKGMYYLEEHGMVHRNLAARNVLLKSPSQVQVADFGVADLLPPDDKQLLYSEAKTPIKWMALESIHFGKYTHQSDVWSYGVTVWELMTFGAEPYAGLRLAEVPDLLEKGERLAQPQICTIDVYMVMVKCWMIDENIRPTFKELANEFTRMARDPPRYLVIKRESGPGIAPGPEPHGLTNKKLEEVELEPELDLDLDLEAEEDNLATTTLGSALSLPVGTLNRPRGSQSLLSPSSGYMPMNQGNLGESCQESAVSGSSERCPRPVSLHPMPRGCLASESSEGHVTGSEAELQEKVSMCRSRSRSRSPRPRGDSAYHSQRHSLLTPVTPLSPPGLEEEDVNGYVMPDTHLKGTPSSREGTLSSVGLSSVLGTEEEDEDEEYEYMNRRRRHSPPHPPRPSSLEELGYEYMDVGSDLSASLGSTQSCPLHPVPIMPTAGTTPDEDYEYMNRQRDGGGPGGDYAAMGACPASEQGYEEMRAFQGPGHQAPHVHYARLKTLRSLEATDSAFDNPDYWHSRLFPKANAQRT

B1: synthetic refolded mouse EGF-like domain of NRG-4 (residues 4 to 50, SEQ ID NO:2) (ligand)
peptide: DHEQPCGPRHRSFCLNGGICYVIPTIPSPFCRCIENYTGARCEEVFL
modifications: disulfide (positions not given here); also: three disulfide bonds, pairing not given here
notes: Chemically synthesised, folded and fully oxidized (three predicted disulfide bonds); also called Neuregulin-4; the novel synthetic peptide
With B1, in assay [1], the “fold lower binding affinity than NRG-1” value was roughly 8 fold. Further, the binding result in assay [2], in assay [3] and in assay [4] was “no binding” in each case. The dissociation constant (Kd) in assay [5] is roughly 20 nM.

(Values after patent US20040121326A1 (YEDA RESEARCH AND DEVELOPMENT, published 2004).)
